Laboratory results: paper PMC12990707, “Multiple novel hepatocellular carcinoma signature genes are commonly controlled by the master pluripotency factor OCT4”

B1: TK1 probe 3 (dsDNA)
DNA 1: CGGGCTAACACCTTCACACTTTATGCAGAAAGTAACAAGGAACCATTCTGAG
DNA 2: CTCAGAATGGTTCCTTGTTACTTTCTGCATAAAGTGTGAAGGTGTTAGCCCG
B2: TK1 probe 1 (dsDNA)
DNA 1: GGGACCTGGCACGCACTAGGCGCTCTGCATGCCCACAGGAGTGCTCTAGACG
DNA 2: CGTCTAGAGCACTCCTGTGGGCATGCAGAGCGCCTAGTGCGTGCCAGGTCCC
B3: TK1 probe 2 (dsDNA)
DNA 1: CCTGGCAGGGTCTACGGATATTATTAGCATAGTCAGGACTTCAATTTTCTTT
DNA 2: AAAGAAAATTGAAGTCCTGACTATGCTAATAATATCCGTAGACCCTGCCAGG

Target: OCT4 (human, UniProt Q01860 1-360)
Sequence (Q01860 whole entry): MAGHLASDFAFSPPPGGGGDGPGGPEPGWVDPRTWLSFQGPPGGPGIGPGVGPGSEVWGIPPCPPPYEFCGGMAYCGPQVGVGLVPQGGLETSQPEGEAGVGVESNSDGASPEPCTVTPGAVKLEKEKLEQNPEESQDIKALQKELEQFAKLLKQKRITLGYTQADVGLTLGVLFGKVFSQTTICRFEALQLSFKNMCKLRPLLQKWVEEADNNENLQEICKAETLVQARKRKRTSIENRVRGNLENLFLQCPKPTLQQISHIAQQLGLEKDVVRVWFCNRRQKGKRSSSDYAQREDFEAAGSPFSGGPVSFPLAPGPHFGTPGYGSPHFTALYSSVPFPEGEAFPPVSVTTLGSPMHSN
Test: EMSA; LightShift chemiluminescent EMSA kit (Thermo 20148) per manufacturer; buffer, salt, pH and temperature not stated
Conditions: protein: recombinant; label: 5' biotin on both strands; blunt

Binding result, binds:
B1, B2, B3
